# Reference: the RNAGym collection of RNA variant scans (doi:10.7554/elife.90254)
# B1: LINE1-full (parent)
# chain: UACGUAGGUGGUUUUCCCCUGAUAGUGCUAAGGGGGCCUGGAAGUUUGGACUGGGCAGAGCUCAACACAGCGUGGCAAAGUGGCUGUGGCUAGACUGCCUCUCUGGAUUCCUCGUCACUCAGCAGGGCAUCUCUGAGAGAAAUGCC
# Variants of: B1
# Test: self-cleavage, relative activity (ratio to wild type); higher = more cleavage; in vitro, sequencing; the parent is a self-cleaving ribozyme
row,Variant,self-cleavage
1,A6G C38U,1.62
2,A6U A107G,1.05
3,A6U A78G,0.77
4,A6G U81A,1.47
5,A6G U134G,0.8
6,A6G A43U,0.85
7,A6G U108C,0.79
8,A6G A22G,1.19
9,U5C U45C,1.32
10,U5C U108G,1.88
11,U5C U108C,1.57
12,U5C U81G,1.31
13,U5C U81A,1.56
14,A6U A22G,0.87
15,A6G G25A,0.1
16,A6G G25U,0.69
17,A6G G125A,0.77
18,U5C U85A,0.21
19,U5C U85C,0.27
20,A6U A129U,1.52
21,A6U C145U,0.48
22,A6G U29C,0.74
23,A6G G48A,0.22
24,A6G G74A,0.4

row,Variant,self-cleavage
1,A6C U115A,0.8
2,A6C A31U,0
3,U5G U132C,1.04
4,A6G U104A,0.73
5,A6U A42G,0.58
6,A6G U46C,0.8
7,A6G U46A,0.94
8,U5G A107G,0.86
9,A6G A64G,0.62
10,A6U G97A,0.12
11,A6G U96A,0.2
12,A6G U96C,0.41
13,A6U C95A,0.07
14,A6G A142G,1.01
15,A6C A124U,1.13
16,A6G C101A,0.56
17,A6G A78G,1.15
18,A6G U9A,0.75
19,A6G U52A,0.43
20,U5C U73C,1.16
21,A6G U20A,1.05
22,A6U G34U,1.02
23,A6C U45C,1.18
24,A6G G127A,0.46

row,Variant,self-cleavage
1,A6G U62C,0.18
2,A6G U62G,0.11
3,A6G G21U,0.53
4,U5G A67U,0.31
5,U5C U109C,0.91
6,A6G G106A,0.66
7,A6G G106U,1.06
8,A6G C17U,0.28
9,A6G U143C,0.57
10,A6G G33A,0.49
11,A6G A65G,0.09
12,A6G A140U,0.77
13,A6G A140G,0.69
14,A6U U46C,0.14
15,A6U C56U,0.21
16,U5C U102C,1
17,U5C U62C,0.07
18,A6G U26C,0.9
19,U5G,0.76
20,A6G U45C,0.5
21,A6G U45G,0.97
22,A6G U119A,1.52
23,A6G A79G,0.8
24,A6G A67G,0.39

row,Variant,self-cleavage
1,A6G A67U,0.68
2,A6G A129G,0.26
3,A6G A129U,0.6
4,U5C U100C,1.52
5,A6G C56U,0.27
6,A6U A65G,0.26
7,A6U A65U,0.33
8,A6G G122A,0.55
9,U5G U112C,0.51
10,A6U U14C,0.92
11,U5C U119A,0.98
12,A6G C113U,0.84
13,A6G C113A,1.18
14,A6G G93A,0.14
15,A6G C133U,0.59
16,A6U G75U,0.53
17,A6G G41U,0.46
18,A6U A124G,0.6
19,A6G U115G,2.04
20,A6G U115A,0.64
21,A6C U96A,0.17
22,U5G A141C,0.56
23,U5G U12C,0.77
24,A6G A107G,0.74

row,Variant,self-cleavage
1,U5G U13C,0.83
2,A6G U39A,0.6
3,A6G G97A,0.18
4,A6U A141G,0.94
5,U5C U115A,0.91
6,U5C U115C,1.27
7,A6U C63G,0.19
8,U5G A121G,0.84
9,A6U A79G,0.8
10,A6U A50G,0.72
11,U5C U46C,0.99
12,A6G U15G,0.97
13,U5C U87C,0.15
14,A6G C37A,0.76
15,A6G U130C,0.81
16,A6G U112C,0.96
17,A6G U112A,0.95
18,A6U C133U,1.04
19,A6G A117G,1.41
20,A6G A117U,2.04
21,U5G A124U,0.96
22,A6U U52A,1
23,A6U A57G,0
24,A6U A57U,0.08

row,Variant,self-cleavage
1,U5C U91C,0.48
2,A6G U132A,1.04
3,A6U A138G,1.15
4,A6G U14A,0.95
5,U5G A64G,0.23
6,A6G A69U,0.22
7,A6G A69G,0.32
8,A6G A31U,1.01
9,A6C U119A,1.36
10,A6G G126A,0.99
11,A6C A22G,0.46
12,A6U A140G,0.77
13,A6U U15A,0.63
14,A6U U15C,1.09
15,A6G U73C,1.34
16,A6G G32A,0.68
17,U5C U104A,1.28
18,A6U U20A,1.21
19,A6U U20C,1.19
20,A6U U23A,0.26
21,A6U U23C,1.31
22,A6G U109C,0.71
23,A6C G35A,1.5
24,A6U G127A,0.59

row,Variant,self-cleavage
1,A6U U45C,1.35
2,A6G U12C,0.73
3,A6G U12G,0.85
4,A6G U23C,0.93
5,A6U U12C,1.43
6,A6G C146U,1.05
7,A6C U85G,0.46
8,U5C U132C,0.86
9,A6G U102C,0.68
10,U5C U130C,1.4
11,A6G U87C,0.15
12,A6G A92U,1.23
13,A6G A92G,0.22
14,A6C,1.08
15,A6G,0.91
16,A6U,0.99
17,A6G G144A,1.21
18,A6G U100G,0.95
19,A6U U39A,1.16
20,A6U U39C,0.84
21,A6G A50G,0.77
22,A6G A50C,1.23
23,A6G A50U,0.51
